We go through seven molecules from US20120328625A1 (AstraZeneca / MedImmune, published 2012).

Test [1] addresses T1, full length human Shh expressed on the cell surface (human, UniProt Q15465 24-462). Briefly: cell-based or functional assay.
Test [2] concerns the target T2, Shh-N in conditioned medium (human, UniProt Q15465 24-197, N-terminal palmitoyl modification; lacks the C-terminal cholesterol moiety). Briefly: cell-based or functional assay.
The target in test [3] is T1, full length human Shh expressed on the …. The test can be described thus: cell-based or functional assay. The source holds these as a separate data set.
Test [4] has as its target T2, Shh-N in conditioned medium. Briefly: cell-based or functional assay. The source holds these as a separate data set.
Test [5] has the same target. The test can be described thus: cell-based or functional assay. This is another data set of the same source.
The target of test [6] is T3, Recombinant Human Desert Hedgehog C23II, amino terminal peptide (R&D Systems cat#4777-HH) (human, UniProt O43323 23-198).
T3 construct: domain: amino terminal peptide; bought; also called Human Dhh
Briefly: ELISA, immobilized human Dhh, antibody 30 µg/ml to 1 pg/ml. In general terms: ELISA stands for enzyme-linked immunosorbent assay.
Method: The plates were washed four times with PBS-T. Titrations of purified antibody (half log serial dilutions over at least six logs with a starting concentration of 30 μg/mL) were made in 100 μl PBS-T and added into wells and incubated with shaking overnight at 4° C. Antibody controls included human IgG2 and IgG4 (Sigma-Aldrich, Cat, #I5404 and #I4639, respectively). […] Following washing with PBS-T, the chemiluminescent Peroxidase substrate (Sigma cat# CPS-2-60) was added at room temperature and incubated for ten minutes with the plate covered by foil. Each well was read for 100 msec in the Spectromax 5e to determine RLU.
After washing with PBS-T and blocking with 1% BSA, antibody titrations spanning concentrations of 30 μg/ml to 1 pg/ml prepared by half log serial dilution in PBS-T were added to wells and incubated with shaking overnight at 4° C.

Test [7] addresses T2, Shh-N in conditioned medium. Briefly: ELISA, apparent KD, purified antibody on immobilized Shh-CM.
Method: (§1) The binding of purified antibodies to recombinant human Shh was determined using an ELISA-based method. The N-terminal signaling domain of Shh, Shh-N, was presented in two forms: as a purified protein isolated from bacteria lacking lipid modifications and as a constituent of conditioned medium in a form that contains the N-terminal palmitoyl modification but lacks the C-terminal cholesterol moiety.
(§2) The plates were sealed and placed on a shaker overnight at 5° C. The next day, the plates were washed 4 times with PBS with 0.05% Tween 20 (PBS-T). […] The plates were washed four times with PBS-T. Titrations of purified antibody (half log serial dilutions over at least six logs with a starting concentration of 30 μg/mL) were made in 100 μl PBS-T and added into wells and incubated with shaking overnight at 4° C. Antibody controls included human IgG2 and IgG4 (Sigma-Aldrich, Cat, #I5404 and #I4639, respectively). […] Following washing with PBS-T, the chemiluminescent Peroxidase substrate (Sigma cat# CPS-2-60) was added at room temperature and incubated for ten minutes with the plate covered by foil. Each well was read for 100 msec in the Spectromax 5e to determine RLU.
Test [8] deals with T4, Recombinant Human Sonic Hedgehog C24II amino terminal peptide (R&D Systems cat#1845-SH) (human, UniProt Q15465 24-197).
T4 construct: domain: amino terminal peptide; bought; also called Shh-C24II; C24II peptide
Briefly: ELISA, apparent KD, purified antibody on immobilized Shh C24II.
Method: as §1, §2

The target in test [9] is T5, biotinylated human Shh (human, UniProt Q15465 24-197, limits assumed, biotinylated).
T5 construct: also called biotin-Shh; immobilized biotinylated Shh
Briefly: ELISA, hybridoma supernatant on neutravidin-captured biotin-Shh.
Method: After blocking with 1% milk in PBS, 40 μl of 500 ng/ml biotinylated Shh in 1×PBS, 1% milk (wt/vol) was added to each well and incubated for 1 hr at RT. Hybridoma supernatants (10 μl/well) were added to 40 μl of 1% milk, 0.05% Tween-20 in PBS per well and incubated 1 hr at RT. Following washing and incubation with secondary antibody (100 ng/ml goat-anti-human IgG Fc HRP), wells were developed with TMB substrate and subsequently quenched with 1 N HCl.

The target of test [10] is T1, full length human Shh expressed on the …. Briefly: FMAT, hybridoma supernatant on 293T cells transiently expressing human Shh.
Method: Cells were maintained at 1×10⁶ cells/ml overnight at 37° C., 5% CO₂. […] Supernatants were added to each well (10 μl/well) and incubated 1.5 hrs at RT. […] Plates were read on the FMAT 8100 HTS system from Applied Biosystems. Total signal (FL1×count) is defined as the number of positive cells in a well (count) multiplied by the average fluorescence intensity of the positive cells (FL1).
For test [11] the target is unchanged. The test can be described thus: flow cytometry, exhaust hybridoma supernatant 1:10, 293T cells transiently expressing human Shh.
Method: (§3) Finally, binding of antibody in exhaust hybridoma supernatants to native Shh was assessed using flow cytometry. […] Transfected or parental cells were seeded into the plates with V-bottom wells (50,000 cells/well). Exhaust supernatants (50 μl of a 1:10 dilution) were added to each well and incubated at 4° C. for 1 hr. […] It was added to a concentration of 2 μg/ml in a volume of 50 μl. Cells were washed and 50 μl of a 2 μg/ml solution of secondary antibody (Cy5-labeled goat-anti-human IgG or Cy5-labeled goat-anti-rabbit IgG) were added to each well. 7AAD was added to a concentration of 5 μg/ml and the mixture was incubated for 30 min at RT. The mean fluorescence for each sample was then determined using flow cytometry.
Test [12] has the same target. Briefly: flow cytometry, hybridoma-derived hIgG4 on HEK 293 cells stably expressing full length Shh; 95% CI ±141 pM. A general note: In flow cytometry, cells or beads pass a laser one at a time.
Method: The binding affinity of the purified antibodies for full length Shh ectopically expressed on the surface of a pool of stable HEK 293 cells was determined using flow cytometry. […] Antibody was mixed with cells at approximately 74,000 cells/well in a final volume of 300 μl in a polypropylene microtiter plate. The plate was incubated with shaking for 5 hours at 4° C. […] The plates were shaken for 20 minutes at 4° C. The mean fluorescence of 10,000 events was recorded for each sample using FACS Canto II HTS flow cytometry instrumentation. A plot of the mean fluorescence as a function of antibody concentration was fit nonlinearly with Scientist 3.0 software to estimate KD.
The target in test [13] is T2, Shh-N in conditioned medium. The test can be described thus: SPR (Biacore T100), recombinant IgG2 mAb amine-coupled to CM5, Shh as analyte, 1:1 model. On the technique in general: Surface plasmon resonance follows binding to a sensor surface in real time, without labels.
Method: (§4) The binding affinity of four purified recombinant antibodies expressed in a human IgG2 constant domain background was measured by high resolution Biacore. All experiments were performed using a Biacore T100 instrument at 23° C. […] All mAbs were covalently coupled to a CM5 biosensor chip using routine amine coupling chemistry. […] For experiments with Shh-containing conditioned media (CM), a 1.5 mL aliquot was centrifuged for 10 minutes at 13,200 rpm. […] Shh samples were randomly injected in triplicate with several buffer inject cycles interspersed for double referencing. All sensorgram data were processed using Scrubber and fit to a 1:1 interaction model (including a term kₘ for mass transport) using CLAMP.
Test [14] has as its target T4, Recombinant Human Sonic Hedgehog C24II …. The description is as above.
Method: as §4
The target in test [15] is T1, full length human Shh expressed on the …. Briefly: flow cytometry, recombinant hIgG2 on CAOV3 cells stably over-expressing full length Shh; 95% CI ±30.4 pM.
Test [16] has the same target. Briefly: flow cytometry, transfected against parental 293T cells.
Method: as §3
The target is the same in test [17]. The test can be described thus: flow cytometry, recombinant hIgG2 on CAOV3 cells stably over-expressing full length Shh; 95% CI ±460 pM.
Test [18] has as its target T2, Shh-N in conditioned medium. Briefly: cell-based or functional assay. This is another data set of the same source.
In test [19] the target is T1, full length human Shh expressed on the …. The test can be described thus: flow cytometry, recombinant hIgG2 on CAOV3 cells stably over-expressing full length Shh; 95% CI ±32.4 pM.
Test [20] has the same target. Briefly: flow cytometry, recombinant hIgG2 on CAOV3 cells stably over-expressing full length Shh; 95% CI ±19.4 pM.
Test [21] concerns the target T2, Shh-N in conditioned medium. The test can be described thus: SPR (Biacore T100), recombinant IgG2 mAb amine-coupled to CM5, Shh as analyte, 1:1 model; KD only an estimate.
Method: as §4
The target of test [22] is T4, Recombinant Human Sonic Hedgehog C24II …. Described as above.
Method: as §4

Numbering of substitutions follows the chain as printed.

B1: 3H8 (antibody, V domains shown)
VH: QVQLVESGGGVVQPGRSLRLSCAASGFTFSTYGMHWVRQAPGKGLEWVAVIWYDGSNKYYADSVKGRFTISRDNSKNTLNLQMNSLRAEDTAVYYCARDLYYYGSGSPFDYWGQGTLVTVSS
VL: EIVMTQSPATLSVSPGERATLSCRASQSVSSNLAWYQQKPGQAPRLLIFGVSIRATGIPARFSGSGSGTEFTLTISSLQSEDFAVYYCQQYNNWPRPGFGGGTKVEIK
notes: fully human XenoMouse hybridoma antibody; also called MAb 3H8
Take B1: in [1], the “% Inh of Gli1 reporter, Co-Culture N = 1” value is 35% and the “% Inh of Gli1 reporter, Co-Culture N = 2” value worked out at 32%. Further, in test [2], the “% Inh of Gli1 reporter, CM N = 1” value was 21% and the “% Inh of Gli1 reporter, CM N = 3” value was -24%. Moreover, in test [3], the “% Inhibition of Gli1 reporter, Co-Culture N = 1, 20 µg/ml” value amounted to 73% and the “% Inhibition of Gli1 reporter, Co-Culture N = 2, 20 µg/ml” value worked out at 87%. Moreover, in test [4], the “% Inhibition of Gli1 reporter, Conditioned Media N = 1, 20 µg/ml” value is 37% and the “% Inhibition of Gli1 reporter, Conditioned Media N = 2, 20 µg/ml” value stood at 44%. For the same molecule, the “IC50, inhibition of osteoblast differentiation (alkaline phosphatase) of C3H10T1/2 cells” value in test [5] amounted to 3400 pM. In addition, the binding result in test [6] was “no binding”. Moreover, the Kd in [7] worked out at 331 pM. For the same molecule, the Kd in [8] is 69 pM. In addition, the OD450 in [9] is 3.81 OD450. Further, in test [10], the “FL1 X COUNT” value was 497000. For the same molecule, the “X Geo Mean (Transients)” value in test [11] is 148. Besides, the Kd in test [12] amounted to 250 pM.

B2: 3H8 recombinant IgG2 (antibody, V domains shown)
VH: B1 VH
VL: B1 VL
B2: the results for the Kd in test [13], in test [14] and in test [15] were 5.6 pM, 26.7 pM and 68.2 pM, respectively.

B3: 4B6 (antibody, V domains shown)
VH: B1 VH with K58E, N80Y
VL: B1 VL with V51I, N93D, K104R
notes: fully human XenoMouse hybridoma antibody; tested as hybridoma supernatant and as purified antibody; also called MAb 4B6
For B3, in test [1], the “% Inh of Gli1 reporter, Co-Culture N = 1” value is 31% and the “% Inh of Gli1 reporter, Co-Culture N = 2” value was found to be 34%. Besides, in test [2], the “% Inh of Gli1 reporter, CM N = 1” value came out at 46% and the “% Inh of Gli1 reporter, CM N = 3” value amounted to 22%. In test [3], the “% Inhibition of Gli1 reporter, Co-Culture N = 1, 20 µg/ml” value turned out to be 44%; the “% Inhibition of Gli1 reporter, Co-Culture N = 2, 20 µg/ml” value was found to be 76%; the “% Inhibition of Gli1 reporter, Co-Culture N = 3, 20 µg/ml” value came to 22%. For the same molecule, in test [4], the “% Inhibition of Gli1 reporter, Conditioned Media N = 1, 20 µg/ml” value was found to be 73% and the “% Inhibition of Gli1 reporter, Conditioned Media N = 2, 20 µg/ml” value was 43%. The “IC50, inhibition of osteoblast differentiation (alkaline phosphatase) of C3H10T1/2 cells” value in test [5] stood at 3300 pM. In addition, the ratio in test [16] amounted to 50.2. Moreover, the OD450 in [9] stood at 5.14 OD450. In [10], the “FL1 X COUNT” value was 625000. For the same molecule, the “X Geo Mean (Transients)” value in test [11] was found to be 196.

B4: 1H8 recombinant IgG2 (antibody, V domains shown)
VH: QVQLQESGPGLVKPSETLSLTCTVSGGSISSYYWTWIRQPPGKGLEWIGYIYYSGSTNYNPSLKSRVTISVDTSKNQFSLKLSSVTAADTAVYYCARDRLLYGMDVWGQGTTVTVSS
VL: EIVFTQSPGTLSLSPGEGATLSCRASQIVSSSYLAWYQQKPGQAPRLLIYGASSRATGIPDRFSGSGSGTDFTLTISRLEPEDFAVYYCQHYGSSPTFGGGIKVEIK
notes: also called 1H8 hIgG2
By koff is commonly meant the rate constant with which the complex falls apart. For orientation: kon means a measure of how fast the partners come together. On to B4, for which, in test [13], the Kd came to 4310 pM, the dissociation rate constant (koff) was determined as 0.00289 s⁻¹ and the kon was 671000 M⁻¹ s⁻¹. In test [14], the Kd was 4300 pM, the koff turned out to be 0.00209 s⁻¹ and the kon was found to be 486000 M⁻¹ s⁻¹. In [17], the Kd was 1520 pM.

B5: 1G1 (antibody, V domains shown)
VH: EVQLVESGGGLVKPGGSLRLSCAASGFTFSSYSMNWVRQAPGKGLEWVSSFSSSSSYIYYADSVKGRFTISRDNAKNSLYLQMNSLRAEDTAVYYCARDRGDYVDYYYGMDVWGQGTTVTVSS
VL: SYELTQPPSVSVSPGQTASITCSGDKLDYKYICWYQQKPGQSPVLVIYQDIKRPSGIPERFSGSNSGNTATLTISGTQAMDEADYYCQAWDSNTPLVFGGGTKLTVL
notes: fully human XenoMouse hybridoma antibody; also called MAb 1G1
As to B5, in [1], the “% Inh of Gli1 reporter, Co-Culture N = 1” value was 42% and the “% Inh of Gli1 reporter, Co-Culture N = 2” value was 39%. Also, in test [2], the “% Inh of Gli1 reporter, CM N = 1” value came to 33% and the “% Inh of Gli1 reporter, CM N = 3” value worked out at 47%. Further, in test [3], the “% Inhibition of Gli1 reporter, Co-Culture N = 1, 20 µg/ml” value was 44%; the “% Inhibition of Gli1 reporter, Co-Culture N = 2, 20 µg/ml” value amounted to 55%; the “% Inhibition of Gli1 reporter, Co-Culture N = 3, 20 µg/ml” value came out at 19%. For the same molecule, in test [4], the “% Inhibition of Gli1 reporter, Conditioned Media N = 1, 20 µg/ml” value turned out to be 50% and the “% Inhibition of Gli1 reporter, Conditioned Media N = 2, 20 µg/ml” value is 61%. Further, in test [5], the “IC50, inhibition of osteoblast differentiation (alkaline phosphatase) of C3H10T1/2 cells” value turned out to be 5700 pM. Also, in test [18], the “IC50, inhibition of endogenous mouse Gli1 mRNA (qRT-PCR) in C3H10T1/2 cells” value was determined as 7700 pM and the “IC50, inhibition of endogenous mouse Ptc1 mRNA (qRT-PCR) in C3H10T1/2 cells” value was determined as 8700 pM. The Kd in test [7] was 30 pM. For the same molecule, the Kd in [8] was found to be 61 pM. In test [9], this molecule returned an OD450 of 4.3 OD450. Moreover, in test [10], the “FL1 X COUNT” value amounted to 585000. In addition, in test [11], the “X Geo Mean (Transients)” value is 188.

B6: 1G1 recombinant IgG2 (antibody, V domains shown)
VH: B5 VH
VL: B5 VL
Take B6: the Kd in test [13] stood at 317 pM; in test [14] it was 377 pM; in test [19], 46.5 pM.

B7: 6D7 recombinant IgG2 (antibody, V domains shown)
VH: QVQLQESGPGLVKPSQTLSLTCTVSGGSINSGGFYWSWIRQHPGKNLEWIGSIYYSGNTYYNPSLKSRVTISVDTSKNQFSLKLTSVTAADTAVYYCARGNDSGDYDWYFDLWGRGTLVTVSS
VL: SYELTQPPSVSVSPGQTASITCSGEKLGYKYVCWYQQKPGQSPVLVIFHDNKRPSGIPERFSGSNSGNTATLTISGAQAMDEADYYCQAGDSSAVFGGGTKLTVL
For B7, the Kd in [20] was 37.1 pM; in test [21] it was 3.4 pM; in test [22] it was 13.5 pM.
